The text below walks through data of article PMC5864754, “Cryo-EM structure of the polycystic kidney disease-like channel PKD2L1” (Nature Communications, 2018).

This data set concerns the molecule itself. Description: cryo-EM structure; purified PKD2L1 (64-629) in amphipols, 20 mM HEPES pH 7.5, 150 mM NaCl, about 5 mg/ml; C4 symmetry applied; 3.38 Å.

B1: PKD2L1 (residues 64–629) (domain or fragment, mouse, UniProt A2A259 64-629, looked up)
chain: TLVSSCCLHICRSIRGLWGTTLTENTAENRELYVKTTLRELVVYIVFLVDICLLTYGMTSSSAYYYTKVMSELFLHTPSDSGVSFQTISSMSDFWDFAQGPLLDSLYWTKWYNNQSLGRGSHSFIYYENLLLGAPRLRQLRVRNDSCVVHEDFREDILNCYDVYSPDKEDQLPFGPQNGTAWTYHSQNELGGSSHWGRLTSYSGGGYYLDLPGSRQASAEALQGLQEGLWLDRGTRVVFIDFSVYNANINLFCILRLVVEFPATGGTIPSWQIRTVKLIRYVNNWDFFIVGCEVVFCVFIFYYVVEEILEIHLHRLRYLSSVWNILDLVVILLSIVAVGFHIFRTLEVNRLMGKLLQQPDTYADFEFLAFWQTQYNNMNAVNLFFAWIKIFKYISFNKTMTQLSSTLARCAKDILGFAIMFFIVFFAYAQLGYLLFGTQVENFSTFVKCIFTQFRIILGDFDYNAIDNANRILGPVYFVTYVFFVFFVLLNMFLAIINDTYSEVKEELAGQKDQLQLSDFLKQSYNKTLLRLRLRKERVSDVQKVLKGGEPEIQFEDFTSTLRELG
modifications: oligosaccharides identified on N241 and N207; glycosylation site N177
notes: Mus musculus PKD2L1, residues 64-629; lacks the EF hand and the coiled-coil domain; residues 101-563 are visible in the structure; Homotetrameric channel; Cloned in a pCAG vector; also called PKD2L1_64–629; truncated PKD2L1; source: exchanged into amphipols
For B1, the “stoichiometry N” value came out at 4.
